{"source": "patent US20210214417A1", "about": "(KAHR MEDICAL, published 2021)", "binders": {"B1": {"name": "C-terminal his-tagged DSP107_V3.1 (SEQ ID NO: 17) (other)", "chain": "EEELQVIQPDKSVLVAAGETATLRCTATSLIPVGPIQWFRGAGPGRELIYNQKEGHFPRVTTVSDLTKRNNMDFSIRIGNITPADAGTYYCVKFRKGSPDDVEFKSGAGTELSVRAGSGARASPGSAASPRLREGPELSPDDPAGLLDLRQGMFAQLVAQNVLLIDGPLSWYSDPGLAGVSLTGGLSYKEDTKELVVAKAGVYYVFFQLELRRVVAGEGSGSVSLALHLQPLRSAAGAAALALTVDLPPASSEARNSAFGFQGRLLHLSAGQRLGVHLHTEARARHAWQLTQGATVLGLFRVTPEIPAGLPSPRSEHHHHHH", "notes": "also called (CH)-V3.1; DSP107_var3.1 with C-terminal His tag"}}, "target": "T1, recombinant human His-tagged CD47 protein (ACRO Biosystem, cat # CD7-H5227) (human, UniProt Q08722 19-139)", "T1 construct": "also called Recombinant human CD47; not shown: His tag", "T1 sequence (Q08722 19-139 limits assumed)": "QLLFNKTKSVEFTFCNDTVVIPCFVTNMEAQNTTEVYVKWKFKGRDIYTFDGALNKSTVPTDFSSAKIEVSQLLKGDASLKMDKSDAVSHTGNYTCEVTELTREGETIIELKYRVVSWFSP", "assay": "competition ELISA: recombinant human CD47 on the plate, fusion protein added first, then biotinylated SIRPα as the blocked ligand, streptavidin-HRP and TMB, 450 nm; EC50 calculated over 0 to 0.7 ug/ml", "protocol": "SIRPα-4-1BBL fusion protein, or a positive control anti CD47 antibody were added to the plate. Following wash biotinylated recombinant human SIRPα was added followed by streptavidin HRP and TMB substrate. Interaction of SIRPα with CD47 was measured by absorbance at 450 nm.\nMethods—ELISA plates were coated overnight with recombinant human CD47. The plates were washed and incubated for 1 hour with different concentrations of the produced SIRPα-4-BBL fusion proteins or a positive control anti CD47 antibody. Following, a biotinylated SIRPα was added; and following 1 hour incubation the plates were washed and blotted with Streptavidin-HRP and TMB substrate according to a standard ELISA protocol (FIG. 13A). Plates were analyzed using a Plate reader (Thermo Scientific, Multiscan FC) at 450 nm, with reference at 620 nm."}
{"binder": "B1", "values": [{"measurement": "EC50", "value": 0.103, "unit": "mg/L"}]}
